Experimental data published in US20060134736A1.

Target: full-length human growth hormone receptor (stably transfected in BaF3 cells, cell line Baf-B03 B2B2) (human) (UniProt P10912)
Assay: cell-based or functional assay

Chain of UniProt P10912 (P10912 19-638): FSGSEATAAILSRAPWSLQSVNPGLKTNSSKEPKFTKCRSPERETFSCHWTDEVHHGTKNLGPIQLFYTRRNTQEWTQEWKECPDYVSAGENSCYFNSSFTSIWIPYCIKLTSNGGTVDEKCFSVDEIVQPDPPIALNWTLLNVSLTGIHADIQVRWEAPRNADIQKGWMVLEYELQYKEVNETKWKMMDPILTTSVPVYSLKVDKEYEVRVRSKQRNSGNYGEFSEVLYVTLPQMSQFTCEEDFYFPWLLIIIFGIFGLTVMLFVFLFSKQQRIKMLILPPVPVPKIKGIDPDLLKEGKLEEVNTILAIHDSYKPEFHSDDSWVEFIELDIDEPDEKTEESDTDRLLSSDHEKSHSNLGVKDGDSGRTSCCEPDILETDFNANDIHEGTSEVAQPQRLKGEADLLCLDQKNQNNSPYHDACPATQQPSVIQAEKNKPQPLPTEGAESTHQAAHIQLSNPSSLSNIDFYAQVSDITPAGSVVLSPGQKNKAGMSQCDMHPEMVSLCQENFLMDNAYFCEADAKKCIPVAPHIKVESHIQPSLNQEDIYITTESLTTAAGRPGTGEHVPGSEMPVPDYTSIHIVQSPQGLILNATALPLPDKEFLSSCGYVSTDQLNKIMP

Row | Substance | Specific Activity (IU/mg) in the Cell Proliferation Assay
1 | Di-PEG-hGH (two PEGs attached to one hGH molecule, Lot No BPM#04-004) (from UniProt P01241 27-217) (ligand) | 0.25 IU/mg
2 | Mono-PEG-hGH (one PEG attached to one hGH molecule, Lot No BPM#04-003) (from UniProt P01241 27-217) (ligand) | 0.46 IU/mg
